To fix the notation:
T1: rat APJ receptor (rat, UniProt Q9JHG3 1-377)
T1 sequence (looked up): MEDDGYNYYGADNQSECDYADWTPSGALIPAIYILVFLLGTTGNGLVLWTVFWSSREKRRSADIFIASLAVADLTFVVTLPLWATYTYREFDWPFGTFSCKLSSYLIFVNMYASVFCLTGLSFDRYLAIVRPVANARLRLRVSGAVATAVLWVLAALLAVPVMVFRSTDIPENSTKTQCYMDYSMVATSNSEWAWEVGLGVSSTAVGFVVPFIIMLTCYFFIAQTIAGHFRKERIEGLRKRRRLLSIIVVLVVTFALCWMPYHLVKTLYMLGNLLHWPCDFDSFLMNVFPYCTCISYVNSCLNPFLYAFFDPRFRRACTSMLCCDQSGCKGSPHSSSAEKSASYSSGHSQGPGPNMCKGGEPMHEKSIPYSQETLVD

T2: human APJ receptor (human, UniProt P35414 1-380)
T2 sequence (looked up): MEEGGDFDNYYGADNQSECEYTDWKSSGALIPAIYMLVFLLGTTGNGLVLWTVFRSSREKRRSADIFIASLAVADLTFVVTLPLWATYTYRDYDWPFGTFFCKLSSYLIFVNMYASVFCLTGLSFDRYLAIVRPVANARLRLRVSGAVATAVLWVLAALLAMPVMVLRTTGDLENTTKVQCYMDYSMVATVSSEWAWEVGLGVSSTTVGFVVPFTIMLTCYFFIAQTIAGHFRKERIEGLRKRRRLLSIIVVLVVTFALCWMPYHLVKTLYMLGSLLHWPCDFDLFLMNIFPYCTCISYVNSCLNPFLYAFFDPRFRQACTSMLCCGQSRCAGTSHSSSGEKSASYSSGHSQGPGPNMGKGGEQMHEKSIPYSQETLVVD

B1: apelin polypeptide SEQ ID NO: 275 (peptide)
peptide: Tridecanoyl-[γGlu][AEEA][AEEA][dQ][hArg]P[NMeR][BLeu]SHKG[Oic][Nle]P[Phe(4-Cl)]-OH
B2: apelin polypeptide SEQ ID NO: 274 (peptide)
peptide: Tridecanoyl-[γGlu][AEEA][AEEA][dQ][hArg]P[dR][BLeu]SHKG[Oic][Nle]P[Phe(4-Cl)]-OH
B3: apelin polypeptide SEQ ID NO: 284 (peptide)
peptide: Tridecanoyl-[γGlu][AEEA][AEEA]Q[dR]P[NMeR][Cha]SHKG[Oic][Nle]P[dPhe(4-Cl)]-OH
SMILES: CCCCCCCCCCCCC(=O)N[C@@H](CCC(=O)NCCOCCOCC(=O)NCCOCCOCC(=O)N[C@@H](CCC(N)=O)C(=O)N[C@H](CCCNC(=N)N)C(=O)N1CCC[C@H]1C(=O)N(C)[C@@H](CCCNC(=N)N)C(=O)N[C@@H](CC1CCCCC1)C(=O)N[C@@H](CO)C(=O)N[C@@H](Cc1c[nH]cn1)C(=O)N[C@@H](CCCCN)C(=O)NCC(=O)N1[C@H](C(=O)N[C@@H](CCCC)C(=O)N2CCC[C@H]2C(=O)N[C@H](Cc2ccc(Cl)cc2)C(=O)O)C[C@@H]2CCCC[C@@H]21)C(=O)O
B4: apelin polypeptide SEQ ID NO: 283 (peptide)
peptide: Tridecanoyl-[γGlu][AEEA][AEEA][dQ][hArg]P[dR][Cha]SHKG[Oic][Nle][dPhe(4-Cl)]-OH
SMILES: CCCCCCCCCCCCC(=O)N[C@@H](CCC(=O)NCCOCCOCC(=O)NCCOCCOCC(=O)N[C@H](CCC(N)=O)C(=O)N[C@@H](CCCCNC(=N)N)C(=O)N1CCC[C@H]1C(=O)N[C@H](CCCNC(=N)N)C(=O)N[C@@H](CC1CCCCC1)C(=O)N[C@@H](CO)C(=O)N[C@@H](Cc1c[nH]cn1)C(=O)N[C@@H](CCCCN)C(=O)NCC(=O)N1[C@H](C(=O)N[C@@H](CCCC)C(=O)N[C@H](Cc2ccc(Cl)cc2)C(=O)O)C[C@@H]2CCCC[C@@H]21)C(=O)O
B5: apelin polypeptide SEQ ID NO: 281 (peptide)
peptide: Tridecanoyl-[γGlu][AEEA][AEEA][dQ][hArg]P[dR][BLeu]SHKG[Oic][Nle]P[dPhe(4-Cl)]-OH
B6: apelin polypeptide SEQ ID NO: 280 (peptide)
peptide: Tridecanoyl-[γGlu][AEEA][AEEA][dQ][NMeR]P[dR][Cha]SHKG[Oic][Nle]P[Phe(4-Cl)]-OH
SMILES: CCCCCCCCCCCCC(=O)N[C@@H](CCC(=O)NCCOCCOCC(=O)NCCOCCOCC(=O)N[C@H](CCC(N)=O)C(=O)N(C)[C@@H](CCCNC(=N)N)C(=O)N1CCC[C@H]1C(=O)N[C@H](CCCNC(=N)N)C(=O)N[C@@H](CC1CCCCC1)C(=O)N[C@@H](CO)C(=O)N[C@@H](Cc1c[nH]cn1)C(=O)N[C@@H](CCCCN)C(=O)NCC(=O)N1[C@H](C(=O)N[C@@H](CCCC)C(=O)N2CCC[C@H]2C(=O)N[C@@H](Cc2ccc(Cl)cc2)C(=O)O)C[C@@H]2CCCC[C@@H]21)C(=O)O
B7: apelin polypeptide SEQ ID NO: 273 (peptide)
peptide: Tridecanoyl-[γGlu][AEEA][AEEA][dQ][hArg]P[dR][Cha]S[Aib]KG[Oic][Nle]P[Phe(4-Cl)]-OH
SMILES: CCCCCCCCCCCCC(=O)N[C@@H](CCC(=O)NCCOCCOCC(=O)NCCOCCOCC(=O)N[C@H](CCC(N)=O)C(=O)N[C@@H](CCCCNC(=N)N)C(=O)N1CCC[C@H]1C(=O)N[C@H](CCCNC(=N)N)C(=O)N[C@@H](CC1CCCCC1)C(=O)N[C@@H](CO)C(=O)NC(C)(C)C(=O)N[C@@H](CCCCN)C(=O)NCC(=O)N1[C@H](C(=O)N[C@@H](CCCC)C(=O)N2CCC[C@H]2C(=O)N[C@@H](Cc2ccc(Cl)cc2)C(=O)O)C[C@@H]2CCCC[C@@H]21)C(=O)O
B8: apelin polypeptide SEQ ID NO: 21 (peptide)
peptide: Ac-[hArg][hArg]Q[hArg][Oic][dR][NMeL]SHKG[Oic][Phe(4-I)]P[dBip]-OH
SMILES: CC(=O)N[C@@H](CCCCNC(=N)N)C(=O)N[C@@H](CCCCNC(=N)N)C(=O)N[C@@H](CCC(N)=O)C(=O)N[C@@H](CCCCNC(=N)N)C(=O)N1[C@H](C(=O)N[C@H](CCCNC(=N)N)C(=O)N(C)[C@@H](CC(C)C)C(=O)N[C@@H](CO)C(=O)N[C@@H](Cc2c[nH]cn2)C(=O)N[C@@H](CCCCN)C(=O)NCC(=O)N2[C@H](C(=O)N[C@@H](Cc3ccc(I)cc3)C(=O)N3CCC[C@H]3C(=O)N[C@H](Cc3ccc(-c4ccccc4)cc3)C(=O)O)C[C@@H]3CCCC[C@@H]32)C[C@@H]2CCCC[C@@H]21
B9: apelin polypeptide SEQ ID NO: 279 (peptide)
peptide: Tridecanoyl-[γGlu][AEEA][AEEA]Q[NMeR]P[dR][Cha]SHKG[Oic][Nle]P[Phe(4-Cl)]-OH
SMILES: CCCCCCCCCCCCC(=O)N[C@@H](CCC(=O)NCCOCCOCC(=O)NCCOCCOCC(=O)N[C@@H](CCC(N)=O)C(=O)N(C)[C@@H](CCCNC(=N)N)C(=O)N1CCC[C@H]1C(=O)N[C@H](CCCNC(=N)N)C(=O)N[C@@H](CC1CCCCC1)C(=O)N[C@@H](CO)C(=O)N[C@@H](Cc1c[nH]cn1)C(=O)N[C@@H](CCCCN)C(=O)NCC(=O)N1[C@H](C(=O)N[C@@H](CCCC)C(=O)N2CCC[C@H]2C(=O)N[C@@H](Cc2ccc(Cl)cc2)C(=O)O)C[C@@H]2CCCC[C@@H]21)C(=O)O
B10: apelin polypeptide SEQ ID NO: 277 (peptide)
peptide: Tridecanoyl-[γGlu][AEEA][AEEA][dL][hArg]P[dR][Cha]SHKG[Oic][Nle]P[Phe(4-Cl)]-OH
SMILES: CCCCCCCCCCCCC(=O)N[C@@H](CCC(=O)NCCOCCOCC(=O)NCCOCCOCC(=O)N[C@H](CC(C)C)C(=O)N[C@@H](CCCCNC(=N)N)C(=O)N1CCC[C@H]1C(=O)N[C@H](CCCNC(=N)N)C(=O)N[C@@H](CC1CCCCC1)C(=O)N[C@@H](CO)C(=O)N[C@@H](Cc1c[nH]cn1)C(=O)N[C@@H](CCCCN)C(=O)NCC(=O)N1[C@H](C(=O)N[C@@H](CCCC)C(=O)N2CCC[C@H]2C(=O)N[C@@H](Cc2ccc(Cl)cc2)C(=O)O)C[C@@H]2CCCC[C@@H]21)C(=O)O
B11: apelin polypeptide SEQ ID NO: 272 (peptide)
peptide: Tridecanoyl-[γGlu][AEEA][AEEA][dQ][hArg]P[dR][Cha]SHKG[Oic][Tle]P[Phe(4-Cl)]-OH
SMILES: CCCCCCCCCCCCC(=O)N[C@@H](CCC(=O)NCCOCCOCC(=O)NCCOCCOCC(=O)N[C@H](CCC(N)=O)C(=O)N[C@@H](CCCCNC(=N)N)C(=O)N1CCC[C@H]1C(=O)N[C@H](CCCNC(=N)N)C(=O)N[C@@H](CC1CCCCC1)C(=O)N[C@@H](CO)C(=O)N[C@@H](Cc1c[nH]cn1)C(=O)N[C@@H](CCCCN)C(=O)NCC(=O)N1[C@H](C(=O)N[C@H](C(=O)N2CCC[C@H]2C(=O)N[C@@H](Cc2ccc(Cl)cc2)C(=O)O)C(C)(C)C)C[C@@H]2CCCC[C@@H]21)C(=O)O
B12: apelin polypeptide SEQ ID NO: 278 (peptide)
peptide: Tridecanoyl-[γGlu][AEEA][AEEA][BLeu][hArg]P[dR][Cha]SHKG[Oic][Nle]P[Phe(4-Cl)]-OH
B13: apelin polypeptide SEQ ID NO: 282 (peptide)
peptide: Tridecanoyl-[γGlu][AEEA][AEEA][dQ][hArg]P[dR][Cha]SHKG[Oic][Nle][Phe(4-Cl)]-OH
SMILES: CCCCCCCCCCCCC(=O)N[C@@H](CCC(=O)NCCOCCOCC(=O)NCCOCCOCC(=O)N[C@H](CCC(N)=O)C(=O)N[C@@H](CCCCNC(=N)N)C(=O)N1CCC[C@H]1C(=O)N[C@H](CCCNC(=N)N)C(=O)N[C@@H](CC1CCCCC1)C(=O)N[C@@H](CO)C(=O)N[C@@H](Cc1c[nH]cn1)C(=O)N[C@@H](CCCCN)C(=O)NCC(=O)N1[C@H](C(=O)N[C@@H](CCCC)C(=O)N[C@@H](Cc2ccc(Cl)cc2)C(=O)O)C[C@@H]2CCCC[C@@H]21)C(=O)O

Starred links: 1 amine or outer side, 2 acyl side, 3 side chain; linkers in the order of their positions; H or OH if unused. Non-standard residues stand in square brackets, D forms with d. *: point of attachment. dBip = N[C@H](Cc1ccc(-c2ccccc2)cc1)C(=O)O; Oic = O=C(O)[C@@H]1C[C@@H]2CCCC[C@@H]2N1; Phe(4-Cl) = N[C@@H](Cc1ccc(Cl)cc1)C(=O)O; dPhe(4-Cl) = N[C@H](Cc1ccc(Cl)cc1)C(=O)O; Phe(4-I) = N[C@@H](Cc1ccc(I)cc1)C(=O)O; γGlu = O=C(O)[C@H](CCC(=O)[*:2])N[*:1]; NMeR = CN[C@@H](CCCNC(=N)N)C(=O)O; Tridecanoyl = CCCCCCCCCCCCC(=O)*; hArg = N=C(N)NCCCC[C@H](N)C(=O)O; Cha = N[C@@H](CC1CCCCC1)C(=O)O; NMeL = CN[C@@H](CC(C)C)C(=O)O; Tle = CC(C)(C)[C@H](N)C(=O)O; Nle = CCCC[C@H](N)C(=O)O; AEEA = NCCOCCOCC(=O)O; Aib = CC(C)(N)C(=O)O; BLeu = β-leucine

The target of the first test is T1, rat APJ receptor. Description: cell-based or functional assay.
Turning to B1, the “EC50 Rat APJ Receptor” value is 19.3 nM.
Still for that read-out and setting: to B2 belongs 46.2 nM; to B3, > 4170 nM; to B4, 15.6 nM.
Same read-out and setting: in the case of B5 it was 87.3 nM.
Still for that read-out and setting: to B6 belongs 4.47 nM.
For B7, the “EC50 Rat APJ Receptor” value was 5.09 nM.
On the same count and under the same terms, to B8 belongs 1.8 nM; to B9, 19.3 nM; to B10, 20.9 nM.
For B11, the “EC50 Rat APJ Receptor” value is 11.5 nM.
The same measure, in the same setting: in the case of B12 it was 14.5 nM.
Still for that read-out and setting: to B13 belongs 13.3 nM.

The target of a further test is T2, human APJ receptor. In words: cell-based or functional assay.
Turning to B1, the “EC50 Human APJ Receptor” value came out at 3.43 nM.
On to B2, for which the “EC50 Human APJ Receptor” value was found to be 8.04 nM.
The same measure, in the same setting: in the case of B3 it was > 4170 nM; in that of B4, 9.74 nM.
The same measure, in the same setting: to B5 belongs 14.8 nM; to B6, 2.04 nM.
Same read-out and setting: to B7 belongs 1.67 nM; to B8, 0.57 nM; to B9, 3.29 nM.
Regarding B10, the “EC50 Human APJ Receptor” value came to 16.1 nM.
The same measure, in the same setting: in the case of B11 it was 16.8 nM; in that of B12, 10.1 nM; in that of B13, 5.79 nM.

The values above are taken from patent US10941182 (Amgen, dated 2021).
